The source of these data is patent US20040253250A1 (XCYTE THERAPIES, published 2004).

The target of assay [1] is anti-CD3 mAb G19-4. In words: ELISA: immobilized G19-4 captures titrated CD3-Ig; detection with anti-human IgG hinge-CH2-CH3 HRP conjugate. Background: An ELISA detects its analyte on a solid surface through an enzyme-linked reagent.
Assay [2] concerns the target CD3εδ-Ig heterodimer (human) (UniProt P07766). In words: BIACORE (SPR); Affinity (nM).
Assay [3] shares this target. In words: ELISA, anti-CD3 mAb immobilized, fusion protein titrated.
Assay [4] addresses CD3ε-Ig (human) (UniProt P07766). The assay is described as above.
The target in assay [5] is CD3εγ-Ig heterodimer (human) (UniProt P07766). The assay is described as above.
The target of assay [6] is CD3γ-Ig (human) (UniProt P09693). Described as above.
The target in assay [7] is T1, CD28huIg (UniProt P10747 19-152).
T1 construct: Immobilized on the BIACORE chip; construct not described; also called CD28Ig; CD28-Ig; not shown: human Ig part (huIg), not further described
Description: BIACORE (SPR), fusion protein immobilized, peptide in solution. The procedure: BIACORE uses surface plasmon resonance (SPR) which occurs when surface plasmon waves are excited at a metal/liquid interface. Light is directed at, and reflected due to bimolecular interactions between analyte (in solution) and ligand (immobilized). CD3εδhuIg, CD3εεhuIg and CD28huIg were covalently immobilized on a carboxymethy dextran chip using EDC/NHS chemistry followed by blocking with ethanol amine. Peptides were dissolved in HBS buffer at pH 7.2 with or without 1% DMSO, and were allowed to pass over these fusion protein-immobilized surfaces. Non-specific binding was substrated by passing these peptides over a controlled surface prepared by immobilizing EDC/NHS alone followed by ethanolamine.

The target of assay [8] is CD3εδ-Ig heterodimer (human) (UniProt P07766). In words: BIACORE (SPR), fusion protein immobilized, peptide in solution; printed as Binding Affinity.

Bridge positions count the residues as written; N and C are the ends. Ends that are not written are not given here. Some results are limits rather than exact numbers.

Sequence of CD3εδ-Ig heterodimer (human) (P07766 23-126, stated change not applied, chain 1 of 2): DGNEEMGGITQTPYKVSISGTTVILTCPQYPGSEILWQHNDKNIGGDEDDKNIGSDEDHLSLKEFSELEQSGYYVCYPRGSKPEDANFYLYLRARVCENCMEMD
Sequence of CD3εδ-Ig heterodimer (human) (P04234 22-105, stated change not applied, chain 2 of 2, further chain): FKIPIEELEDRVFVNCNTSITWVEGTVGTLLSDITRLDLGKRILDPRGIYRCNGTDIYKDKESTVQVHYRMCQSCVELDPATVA
Sequence of CD3ε-Ig (human) (P07766 23-126): as the sequence (P07766 23-126, stated change not applied, chain 1 of 2) above
Sequence of CD3εγ-Ig heterodimer (human) (P07766 23-126, chain 1 of 2): as the sequence (P07766 23-126, stated change not applied, chain 1 of 2) above
Sequence of CD3εγ-Ig heterodimer (human) (P09693 23-116, chain 2 of 2, further chain): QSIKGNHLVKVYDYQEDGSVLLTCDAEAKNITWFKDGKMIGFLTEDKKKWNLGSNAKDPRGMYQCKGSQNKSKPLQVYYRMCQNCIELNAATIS
Sequence of CD3γ-Ig (human) (P09693 23-116): as the sequence (P09693 23-116, chain 2 of 2, further chain) above

For orientation: EC50 (read off the curve) means the concentration at which the effect is half-maximal. Turning to “CD3εγ-Ig heterodimer (from UniProt P07766 23-126; P09693 23-116) (Fc fusion)”, the EC50 (read off the curve) in assay [1] is 0.8 mg/L.

“CD3εδ-Ig heterodimer (from UniProt P07766 23-126; P04234 22-105) (Fc fusion)” showed an EC50 (read off the curve) in assay [1] of 0.1 mg/L.

As a reminder, the Kd is the equilibrium constant for the complex coming apart. Low readings indicate tighter binding, high ones weaker binding. Turning to anti-CD3 mAb BC3 (antibody), the Kd in assay [2] amounted to 5.7 nM.

As to anti-CD3 mAb G19-4 (antibody), the saturating concentration of the fusion protein in assay [3] is 4 µg/mL; in assay [4], more than 100 µg/mL; in assay [5], 20 µg/mL; in assay [6], more than 100 µg/mL. For the same molecule, the Kd in assay [2] turned out to be 1.28 nM.

With anti-CD3 mAb 64.1 (antibody), the Kd in assay [2] turned out to be 7.58 nM.

B1: YCFDWKNCY (SEQ ID NO:80) (peptide)
peptide: YCFDWKNCY
modifications: disulfide 2-8 (inferred)
B1: the binding result in assay [7] is on record as “no binding”.

B2: YCYDYDGCY (SEQ ID NO:75) (peptide)
peptide: YCYDYDGCY
modifications: disulfide 2-8 (inferred)
Take B2: the binding result in assay [7] is reported as “no binding”.

B3: YCYDYDFCY (SEQ ID NO:77) (peptide)
peptide: YCYDYDFCY
modifications: disulfide 2-8 (inferred)
On to B3, for which the binding result in assay [7] was “no binding”.

B4: YCYDYDYCY (SEQ ID NO:76) (peptide)
peptide: YCYDYDYCY
modifications: disulfide 2-8 (inferred)
For the molecule B4, the binding result in assay [7] is given as “no binding”.

B5: YCYDDHTCY (SEQ ID NO:78) (peptide)
peptide: YCYDDHTCY
modifications: disulfide 2-8 (inferred)
As to B5, the binding result in assay [7] was “no binding”.

B6: YCYDDHQCY (SEQ ID NO:79) (peptide)
peptide: YCYDDHQCY
modifications: disulfide 2-8 (inferred)
For B6, the binding result in assay [7] is “no binding”.

B7: … (SEQ ID NO:75) (peptide)
peptide: YCYDYDGCY
modifications: disulfide 2-8 (inferred)
Take B7: the Kd in assay [8] stood at 10000 nM. This lies in the double-digit micromolar range.

B8: … (SEQ ID NO:80) (peptide)
peptide: YCFDWKNCY
modifications: disulfide 2-8 (inferred)
B8 came in with a Kd in assay [8] of 500 nM.
